Test results: article PMC10179609
Like-named read-outs stand apart in the source and are kept apart here.

Tests used:
[1] = viscometry; falling ball micro viscometer, 20 °C, Tpm 1.0 mg/mL (15 µM), 30 mM HEPES-Na pH 7.3, 100 mM NaCl, 4 mM DTT; end-to-end (N- and C-ends) interaction of Tpm dimers; conditions: other: viscometry
[2] = target: F-actin (skeletal rabbit muscle actin) (rabbit) (UniProt P68135); assay: light scattering on heating; 20 μM phalloidin-stabilized F-actin, 10.5 μM Tpm, 30 mM HEPES-Na pH 7.3, 100 mM NaCl; 350 nm, heating 1 °C/min; Tdiss is the temperature of a 50% decrease in light scattering
[3] = target: F-actin (skeletal rabbit muscle actin) (rabbit) (UniProt P68135)
[4] = target: F-actin (skeletal rabbit muscle actin) (rabbit) (UniProt P68135); assay: co-sedimentation; without TnT1; 10 μM F-actin, Tpm 0 to 7.5 μM, 20 °C, 30 mM HEPES-Na pH 7.3, 200 mM NaCl; 100,000 g 40 min, SDS-PAGE of pellet and supernatant
[5] = target: F-actin (skeletal rabbit muscle actin) (rabbit) (UniProt P68135); assay: co-sedimentation; with 1.5 μM TnT1 (fragment of human cardiac troponin T); 10 μM F-actin, Tpm 0 to 7.5 μM, 20 °C, 30 mM HEPES-Na pH 7.3, 255 mM NaCl; 100,000 g 40 min, SDS-PAGE of pellet and supernatant
[6] = target: α-chain of tropomyosin (αTpm, Tpm 1.1), single chain (human); assay: cross-linking; ααTpm, κκTpm or their equimolar mixture heated to 70 °C, cooled, dimers cross-linked at SH groups with DTNB; SDS-PAGE without β-mercaptoethanol
[7] = target: F-actin (skeletal rabbit muscle actin) (rabbit) (UniProt P68135); assay: co-sedimentation; without TnT1; 10 μM F-actin, Tpm 0 to 7.5 μM, 20 °C, 30 mM HEPES-Na pH 7.3, 200 mM NaCl; 100,000 g 40 min, SDS-PAGE of pellet and supernatant; remark: listed apart in the source

| Substance | Tdiss (temperature of 50% dissociation of the complex with F-actin) [2] [°C] | reduction of the sliding velocity of F-actin (2.2 µm/s) in the in vitro motility assay [3] [%] | K50% (Tpm concentration at half-saturation of F-actin) [4] [µM] | K50% with TnT1 (Tpm concentration at half-saturation of F-actin) [5] [µM] | viscosity of the Tpm solution [1] [mPa·s] | also measured |
| --- | --- | --- | --- | --- | --- | --- |
| ααTpm homodimer (alpha-tropomyosin, Tpm 1.1) | – | – | – | – | 0.41 ± 0.04 | – |
| κ-chain of tropomyosin (κTpm, Tpm 1.2), single chain (natural protein) | – | – | – | – | – | share of heterodimers among the dimers formed from an equimolar mixture [6]: < 90% |
| κκTpm homodimer (kappa-tropomyosin, Tpm 1.2) | – | – | – | – | 0.09 ± 0.01 | – |

Further lines, with some results ahead:

| Tdiss (temperature of 50% dissociation of the complex with F-actin) [2] [°C] | reduction of the sliding velocity of F-actin (2.2 µm/s) in the in vitro motility assay [3] [%] | K50% (Tpm concentration at half-saturation of F-actin) [4] [µM] | K50% with TnT1 (Tpm concentration at half-saturation of F-actin) [5] [µM] | Substance | viscosity of the Tpm solution [1] [mPa·s] | also measured |
| --- | --- | --- | --- | --- | --- | --- |
| 45.9 | 50 | 1.23 | – | ααTpm homodimer (alpha-tropomyosin, Tpm 1.1) (natural protein) | – | – |
| – | – | – | 0.71 | ακTpm heterodimer (complex) | – | – |
| 42.1 | 30 | 1.29 | 0.88 | κκTpm homodimer (kappa-tropomyosin, Tpm 1.2) (natural protein) | – | K50% (Tpm concentration at half-saturation of F-actin) [7]: 2.37 µM |
